T1: MgrA (Staphylococcus aureus LAC, UniProt P0C1S0 1-147)
T1 sequence: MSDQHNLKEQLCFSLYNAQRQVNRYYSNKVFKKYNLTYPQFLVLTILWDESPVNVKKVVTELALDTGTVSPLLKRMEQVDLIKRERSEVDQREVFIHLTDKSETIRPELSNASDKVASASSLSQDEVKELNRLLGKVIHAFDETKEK


Tests used:
[1] = target: T1, MgrA; experiment: competition; 10-fold excess over labeled Pebh; details: protein: recombinant; tags: His6-MBP removed by Tev cleavage (untagged; possible linker residues); chain copies: 2; blunt
[2] = target: T1, MgrA; experiment: EMSA; 0-2 uM MgrA, 50 nM probe; dose-dependent; details: protein: recombinant; tags: His6-MBP removed by Tev cleavage (untagged; possible linker residues); chain copies: 2; label: IRDye 700 on HC346; blunt
[3] = target: T1, MgrA; experiment: competition; 10-fold excess over labeled sraP P2 probe; details: protein: recombinant; tags: His6-MBP removed by Tev cleavage (untagged; possible linker residues); chain copies: 2; blunt
[4] = target: T1, MgrA; experiment: EMSA; 0-2 uM MgrA, 50 nM probe; details: protein: recombinant; tags: His6-MBP removed by Tev cleavage (untagged; possible linker residues); chain copies: 2; label: IRDye 700 at one end (HC487); blunt

Binder	binding result [1]	binding result [3]	other results
non-specific competitor NSP (sraP probe 6) (dsDNA) DNA 1: CTGGAAAAAATTGGGTAAAATCCGGAATTAAAGAAATAGAAATGTTCAAA DNA 2: TTTGAACATTTCTATTTCTTTAATTCCGGATTTTACCCAATTTTTTCCAG	no binding		
sraP P2 probe (sraP probe5) (dsDNA) DNA 1: TTTGTATCAAAAAAGAGTTGTATTAAATTGAATAGTGGCATATATTATAA DNA 2: TTATAATATATGCCACTATTCAATTTAATACAACTCTTTTTTGATACAAA			binding result [2]: binds
sraP specific competitor SP (dsDNA) DNA 1: TTTGTATCAAAAAAGAGTTGTATTAAATTGAATAGTGGCATATATTATAA DNA 2: TTATAATATATGCCACTATTCAATTTAATACAACTCTTTTTTGATACAAA		binds	
Pebh probe (ebh probe2) (dsDNA) DNA 1: GAGCATAAATAAATTGTTCAACACATAGTTGTAATGTGTTTCAATACTTT DNA 2: AAAGTATTGAAACACATTACAACTATGTGTTGAACAATTTATTTATGCTC			binding result [4]: binds
ebh specific competitor SP (dsDNA) DNA 1: GAGCATAAATAAATTGTTCAACACATAGTTGTAATGTGTTTCAATACTTT DNA 2: AAAGTATTGAAACACATTACAACTATGTGTTGAACAATTTATTTATGCTC	binds		
sraP mutated competitor MP (sraP probe5 mut) (dsDNA) DNA 1: TTTGTAGATGTCAAGCACCTCATTAAATTGAATAGTGGCATATATTATAA DNA 2: TTATAATATATGCCACTATTCAATTTAATGAGGTGCTTGACATCTACAAA		no binding	
